Data from publication PMC2852889.

Molecular target: human serum amyloid P (human), P02743
Assay: SPR
Conditions: remark: other sources report otherwise

Chain of human serum amyloid P (human), P02743 (P02743 20-223): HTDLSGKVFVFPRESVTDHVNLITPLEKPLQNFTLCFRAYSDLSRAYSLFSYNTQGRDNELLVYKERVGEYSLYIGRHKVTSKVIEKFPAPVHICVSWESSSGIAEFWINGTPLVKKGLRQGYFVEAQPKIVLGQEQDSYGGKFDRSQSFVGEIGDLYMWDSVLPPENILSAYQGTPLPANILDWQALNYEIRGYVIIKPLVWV

B1: hFcγRIIIB, O75015 17-200 (receptor)
chain: GMRTEDLPKAVVFLEPQWYSVLEKDSVTLKCQGAYSPEDNSTQWFHNENLISSQASSYFIDAATVNDSGEYRCQTNLSTLSDPVQLEVHIGWLLLQAPRWVFKEEDPIHLRCHSWKNTALHKVTYLQNGKDRKYFHHNSDFHIPKATLKDSGSYFCRGLVGSKNVSSETVNITITQGLAVSTIS
  Kd: 0.37 nM
